One assay deals with T1, MC38-mGPC1.
T1 construct: also called mGPC1-MC38; mouse GPC1 stably expressed on the mouse colorectal cancer cell line MC38
T1 mouse Glypican-1: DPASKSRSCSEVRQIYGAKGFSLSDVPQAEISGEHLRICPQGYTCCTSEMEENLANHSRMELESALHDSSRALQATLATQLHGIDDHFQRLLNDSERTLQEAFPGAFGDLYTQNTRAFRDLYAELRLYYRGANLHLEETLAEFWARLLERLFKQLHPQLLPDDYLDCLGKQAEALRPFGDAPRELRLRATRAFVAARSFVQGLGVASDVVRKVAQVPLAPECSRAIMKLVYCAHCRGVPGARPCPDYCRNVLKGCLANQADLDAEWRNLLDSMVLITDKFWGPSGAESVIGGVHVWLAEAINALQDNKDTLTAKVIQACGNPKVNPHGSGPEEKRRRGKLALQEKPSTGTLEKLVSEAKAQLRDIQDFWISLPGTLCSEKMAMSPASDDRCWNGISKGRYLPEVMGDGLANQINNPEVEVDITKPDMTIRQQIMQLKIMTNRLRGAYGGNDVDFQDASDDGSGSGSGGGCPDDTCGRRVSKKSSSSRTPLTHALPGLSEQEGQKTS
Briefly: flow cytometry on MC38-mGPC1 cells (the sheet names clone 01a033 and mIgG2a; paragraph 327 names clone T2 with FITC anti-human IgG). (In general: In flow cytometry, cells or beads pass a laser one at a time.)

Assay [1] addresses T2, recombinant human GPC1 protein (R&D Systems) (human, UniProt P35052 24-530).
T2 construct: Bought recombinant protein (R&D Systems); also called human GPC-1 antigen; Glypican-1
T2 sequence: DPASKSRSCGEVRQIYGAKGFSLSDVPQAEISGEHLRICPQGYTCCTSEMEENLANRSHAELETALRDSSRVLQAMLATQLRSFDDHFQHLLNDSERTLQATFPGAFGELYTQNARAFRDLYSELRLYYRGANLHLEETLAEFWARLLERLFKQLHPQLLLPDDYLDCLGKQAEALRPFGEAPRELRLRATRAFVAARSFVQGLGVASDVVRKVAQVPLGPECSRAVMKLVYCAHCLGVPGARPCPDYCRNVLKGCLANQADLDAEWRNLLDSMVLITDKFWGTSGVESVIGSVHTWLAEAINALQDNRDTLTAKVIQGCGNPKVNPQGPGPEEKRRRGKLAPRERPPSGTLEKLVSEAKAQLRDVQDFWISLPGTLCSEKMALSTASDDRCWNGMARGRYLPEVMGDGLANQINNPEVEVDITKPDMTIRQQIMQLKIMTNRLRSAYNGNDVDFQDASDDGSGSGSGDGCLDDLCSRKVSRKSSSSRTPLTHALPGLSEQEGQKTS
Nature of the assay: SPR (Biacore 8K); antibody captured by anti-mouse-Fc antibody on the chip, human GPC-1 flowed over. Here is the method:
The binding affinity of the mouse antibody to human GPC-1 was measured through surface plasmon resonance technique (Biacore (registered trademark) 8K). An anti-mouse-Fc antibody was immobilized on a chip, and the mouse antibody (01a033) was flowed thereon and allowed to bind thereto. After washing, the human GPC-1 was flowed thereon, and the binding constant (Ka) and the dissociation constant (Kd) were measured.
Background: SPR reads the build-up and loss of mass on a sensor chip optically.

B1: anti-GPC-1 mouse monoclonal antibody 01a033 (antibody, V domains shown)
VH: QVQLKQSGPELVKPGASVKISCKASGYSFTGYYMHWVKQSPEKSLEWIGEINPSTGDTTYNQKFKAKATLTVDKSSSTAYMQLKSLTSEDSAVYYCAREKRDDGVFAYWGQGTLVTVSS
VL: DIVMSQSPKSMSMSVGERVALSCKASENVGTYVSWYQQKPEQSPKLLIYGASNRYTGVPDRFTGSGSATDFTLTISSVQAEDLADYYCGQSYSYPLTFGAGTKLELK
notes: Mouse monoclonal antibody; also called mouse antibody (01a033); mouse anti-GPC1 antibody (clone 01a033)
As to B1, the binding result with MC38-mGPC1 is “binds”. In assay [1], the dissociation constant Kd is 31.6 nM, the koff amounted to 0.00388 s⁻¹ and the kon came to 123000 M⁻¹ s⁻¹.

A word on the Kd: it is the constant that tells how readily two partners part at equilibrium. By koff is commonly meant the first-order rate constant of dissociation. Broadly, the kon is a measure of how fast the partners come together.

Values taken from patent US20230250188A1 (NATIONAL UNIVERSITY CORPORATION KOCHI UNIVERSITY, published 2023).
